The data set deals with the molecule itself. As to the kind of experiment: non-reducing SDS-PAGE with Western blot; cell-free extracts in Laemmli sample buffer without reducing agent, 10% SDS-PAGE, Western blot with anti-LS and anti-SS antibodies; shows disulfide-linked dimers only. (Immunoblotting shows a protein as a band on a membrane.)

B1: potato ADP-glucose pyrophosphorylase (AGPase) small subunit, wild type (enzyme, potato (S. tuberosum), UniProt P23509 1-521, looked up)
chain: VSDSQNSQTCLDPDASRSVLGIILGGGAGTRLYPLTKKRAKPAVPLGANYRLIDIPVSNCLNSNISKIYVLTQFNSASLNRHLSRAYASNMGGYKNEGFVEVLAAQQSPENPDWFQGTADAVRQYLWLFEEHTVLEYLILAGDHLYRMDYEKFIQAHRETDADITVAALPMDEKRATAFGLMKIDEEGRIIEFAEKPQGEQLQAMKVDTTILGLDDKRAKEMPFIASMGIYVISKDVMLNLLRDKFPGANDFGSEVIPGATSLGMRVQAYLYDGYWEDIGTIEAFYNANLGITKKPVPDFSFYDRSAPIYTQPRYLPPSKMLDADVTDSVIGEGCVIKNCKIHHSVVGLRSCISEGAIIEDSLLMGADYYETDADRKLLAAKGSVPIGIGKNCHIKRAIIDKNARIGDNVKIINKDNVQEAARETDGYFIKSGIVTVIKDALIPSGIII
notes: Small subunit of potato (Solanum tuberosum) tuber ADP-glucose pyrophosphorylase, cDNA in plasmid pML10; as far as I recall it lacks the transit peptide; also called SS; SS^WT; source: E. coli AC70R1-504 (glgC-), plasmid pML10, co-expressed with LS (pML7), in cell-free extract
B1: the “stoichiometry N” value amounted to 2.

One may read the stoichiometry N as a count of units in the complex or per binding partner.

The values above are taken from paper doi:10.1101/054106, “Glu-370 in the Large Subunit Influences the Substrate Binding, Allosteric, and Heat Stability Properties of Potato ADP-glucose Pyrophosphorylase” (bioRxiv, 2016).
